According to US20150218281A1 (Ablynx, published 2015):
Changes are numbered by the printed parent chain. Values belong to the binder of their own block, whether it stands above or below them.

Tests used:
[1] = target: T1, full length human OX40L expressed on CHO cells (human, UniProt P23510 1-183); assay: cell-based or functional assay
T1 sequence: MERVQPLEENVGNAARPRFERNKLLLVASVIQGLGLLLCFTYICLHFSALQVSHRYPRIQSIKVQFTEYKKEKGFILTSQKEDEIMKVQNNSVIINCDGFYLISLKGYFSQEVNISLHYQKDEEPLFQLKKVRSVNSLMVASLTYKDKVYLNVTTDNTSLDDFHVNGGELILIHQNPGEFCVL

[2] = target: T1, full length human OX40L expressed on …; assay: competition FACS with hOX40/Fc on CHO-hOX40L
Description: The competition FACS assay was performed as described in example 2.

[3] = target: T2, recombinant human OX40L (extracellular domain, R&D Systems) (human, UniProt P23510 51-183); assay: SPR, after second injection of buffer HBS-EP+
T2 construct: also called hOX40L; rec. hOX40L
T2 sequence: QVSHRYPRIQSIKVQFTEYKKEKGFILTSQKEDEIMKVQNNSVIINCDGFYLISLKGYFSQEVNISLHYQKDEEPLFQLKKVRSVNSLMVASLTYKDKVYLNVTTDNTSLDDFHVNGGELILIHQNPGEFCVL
Description: (§1) In addition, it was investigated to what extend the 7 anti-OX40L Nanobodies have a different or identical or overlapping epitope. Standard conditions were as described above. […] 1300 RU. A dual injection was performed at 10 μl/min for 2 min, starting with 500 nM of the first Nanobody, followed by 500 nM of the second Nanobody. After 10 min dissociation, regeneration of the surface was performed by injection of 50 mM NaOH for 5-20 sec at 100 μl/min.

[4] = target: T1, full length human OX40L expressed on …; assay: FACS binding to CHO cells, anti-c-myc detection
Description: (§2) Transfection of CHO K1 with the respective expression plasmid DNA and selection of clones with high expression levels was performed as described in Example 1. Binding of the Nanobodies to the cell surface expressed OX40L was assessed by FACS analysis of cells as described below.
(§3) After washing bound Nanobodies were detected in FACSArray™ using mouse anti-c-myc and PE conjugated goat anti-mouse IgG.

[5] = target: T3, cynomolgus OX40L expressed on CHO cells (cynomolgus monkey, UniProt P23510 1-183 (human entry)); assay: FACS binding to CHO cells, anti-c-myc detection
T3 construct: also called cynoOX40L; CHO-cynoOX40L
T3 chain: T1 sequence with R55Q, K73E
Description: as §2, §3

[6] = target: T2, recombinant human OX40L (extracellular …); assay: SPR, second injection after competitor OX40L01B11
Description: as §1

[7] = target: T2, recombinant human OX40L (extracellular …); assay: SPR, second injection after competitor OX40L01E07
Description: as §1

[8] = target: T2, recombinant human OX40L (extracellular …); assay: SPR, second injection after competitor OX40L01E10
Description: as §1

[9] = target: T2, recombinant human OX40L (extracellular …); assay: SPR, second injection after competitor OX40L15B07
Description: as §1

[10] = target: T2, recombinant human OX40L (extracellular …); assay: SPR, second injection after competitor OX40L18E09
Description: as §1

[11] = target: T2, recombinant human OX40L (extracellular …); assay: SPR, second injection after competitor OX40L19A07
Description: as §1

[12] = target: T2, recombinant human OX40L (extracellular …); assay: SPR, second injection after competitor OX40L19D08
Description: as §1

[13] = target: T4, biotinylated hOX40L (R&D Systems, biotinylated in house) (human, UniProt P23510 51-183, biotinylated with Sulfo-NHS-LC-Biotin, sites not stated); assay: AlphaScreen, 31 pM biotinylated hOX40L + 80 pM OX40/Fc
T4 construct: same bought protein as m10, biotinylated; also called biotinylated OX40L
T4 sequence: T2 sequence
Description: (§4) Next, streptavidin donor beads were added and incubated for an additional 1 hour. Fluorescence was measured by reading plates on the EnVision Multilabel Plate Reader using an excitation wavelength of 680 nm and an emission wavelength of 520 nm.

[14] = target: T4, biotinylated hOX40L (R&D Systems, …); assay: AlphaScreen, 120 pM biotinylated hOX40L + 0.2 nM hOX40/Fc
Description: as §4

[15] = target: T1, full length human OX40L expressed on …; assay: competition FACS, 3.1 nM hOX40/Fc on hOX40L expressing cells
[16] = target: T4, biotinylated hOX40L (R&D Systems, …); assay: hOX40L/hOX40 AlphaScreen, sample heated 1 min at Tm+10 C
Description: as §4
In the TSA assay, Nanobodies were diluted to a concentration of 0.2 mg/ml and melting temperature (Tm) was determined at different pH by stepwise increase in temperature in presence of Sypro Orange, a dye that binds to […] residues that become exposed upon unfolding of the protein, using the Lightcycler (Roche) for detection. […] In SEC analysis, the Nanobodies were analyzed on a Phenomenex matrix to allow detection of multimers, aggregates or ‘stickyness’.

IC50, IL4 production, T-cell activation assay, donor 1 [1]: 236 nM
IC50, IL4 production, T-cell activation assay, donor 2 [1]: 249 nM
IC50, IL4 production, T-cell activation assay, donor 3 [1]: 73 nM
IC50 [2]: 2 nM
Binding Level sample 2 (RU) [3]: 155 RU
Binding Level sample 2 - sample 1 (RU) [3]: -40 RU
EC50 [4]: 2.43 nM
EC50 [5]: 3.23 nM
Binding Level sample 2 (RU) [6]: 324 RU
Binding Level sample 2 - sample 1 (RU) [6]: -9 RU
Binding Level sample 2 (RU) [7]: 198 RU
Binding Level sample 2 - sample 1 (RU) [7]: 12 RU
Binding Level sample 2 (RU) [8]: 237 RU
Binding Level sample 2 - sample 1 (RU) [8]: 17 RU
Binding Level sample 2 (RU) [9]: 198 RU
Binding Level sample 2 - sample 1 (RU) [9]: 5 RU
Binding Level sample 2 (RU) [10]: 189 RU
Binding Level sample 2 - sample 1 (RU) [10]: 2 RU
Binding Level sample 2 (RU) [11]: 200 RU
Binding Level sample 2 - sample 1 (RU) [11]: 26 RU
Binding Level sample 2 (RU) [12]: 217 RU
Binding Level sample 2 - sample 1 (RU) [12]: -7 RU
IC50 [13]: 0.125 nM
IC50 [14]: 0.3 nM
IC50 [15]: 1.61 nM
B1: OX40L15B07 (VHH)
VHH: EVQLVESGGGLVQAGGSLRLSCAASRSIGRLDRMGWYRHRTGEPRELVATITGGSSINYGDFVKGRFTISIDNAKNTVYLQMNNLKPEDTAVYYCNFNKYVTSRDTWGQGTQVTVSS
notes: monovalent Nanobody from E. coli; not shown: C-terminal c-myc and His6 tag

IC50, IL4 production, T-cell activation assay, donor 1 [1]: 260 nM
IC50, IL4 production, T-cell activation assay, donor 2 [1]: 320 nM
IC50, IL4 production, T-cell activation assay, donor 3 [1]: 125 nM
IC50, IL4 production, T-cell activation assay, donor 4 [1]: 169 nM
IC50 [2]: 11 nM
Binding Level sample 2 (RU) [3]: 212 RU
Binding Level sample 2 - sample 1 (RU) [3]: -9 RU
EC50 [4]: 4.03 nM
EC50 [5]: 4.9 nM
Binding Level sample 2 (RU) [6]: 486 RU
Binding Level sample 2 - sample 1 (RU) [6]: 194 RU
Binding Level sample 2 (RU) [7]: 192 RU
Binding Level sample 2 - sample 1 (RU) [7]: 11 RU
Binding Level sample 2 (RU) [8]: 289 RU
Binding Level sample 2 - sample 1 (RU) [8]: 62 RU
Binding Level sample 2 (RU) [9]: 252 RU
Binding Level sample 2 - sample 1 (RU) [9]: 55 RU
Binding Level sample 2 (RU) [10]: 238 RU
Binding Level sample 2 - sample 1 (RU) [10]: 45 RU
Binding Level sample 2 (RU) [11]: 240 RU
Binding Level sample 2 - sample 1 (RU) [11]: 63 RU
Binding Level sample 2 (RU) [12]: 252 RU
Binding Level sample 2 - sample 1 (RU) [12]: 23 RU
IC50 [13]: 0.229 nM
IC50 [16]: 0.1 nM
IC50 [14]: 0.423 nM
IC50 [15]: 8.89 nM
B2: OX40L01E07 (VHH)
VHH: EVQLVESGGGLVQAGGSLRLSCAASGRTFSSIYAKGWFRQAPGKEREFVAAISRSGRSTSYADSVKGRFTISRDNAKNTVYLQMNSLKPEDTAVYYCAAVGGATTVTASEWDYWGLGTQVTVSS
notes: as for B1

IC50, IL4 production, T-cell activation assay, donor 1 [1]: 230 nM
IC50, IL4 production, T-cell activation assay, donor 2 [1]: 188 nM
IC50, IL4 production, T-cell activation assay, donor 3 [1]: 80 nM
IC50, IL4 production, T-cell activation assay, donor 4 [1]: 220 nM
IC50 [2]: 5 nM
Binding Level sample 2 (RU) [3]: 383 RU
Binding Level sample 2 - sample 1 (RU) [3]: -57 RU
EC50 [4]: 2.94 nM
EC50 [5]: 3.39 nM
Binding Level sample 2 (RU) [6]: 380 RU
Binding Level sample 2 - sample 1 (RU) [6]: 7 RU
Binding Level sample 2 (RU) [7]: 399 RU
Binding Level sample 2 - sample 1 (RU) [7]: 205 RU
Binding Level sample 2 (RU) [8]: 296 RU
Binding Level sample 2 - sample 1 (RU) [8]: 76 RU
Binding Level sample 2 (RU) [9]: 259 RU
Binding Level sample 2 - sample 1 (RU) [9]: 61 RU
Binding Level sample 2 (RU) [10]: 238 RU
Binding Level sample 2 - sample 1 (RU) [10]: 48 RU
Binding Level sample 2 (RU) [11]: 358 RU
Binding Level sample 2 - sample 1 (RU) [11]: 180 RU
Binding Level sample 2 (RU) [12]: 433 RU
Binding Level sample 2 - sample 1 (RU) [12]: 205 RU
IC50 [13]: 0.278 nM
IC50 [16]: 0.6 nM
IC50 [14]: 0.375 nM
IC50 [15]: 5.61 nM
B3: OX40L01B11 (VHH)
VHH: EVQLVESGGGLVQAGGSLRLSCVASGRSFSTYIMGWFRQAPGKEREFVATISRSGITTRSADSVKGRFTISRDNAKNTVYLQMNSLKPEDTAVYYCAAGPYVEQTLGLYQTLGPWDYWGQGTQVTVSS
notes: as for B1
